Measured values: the nanobody polyreactivity screen of Harvey et al. (2022)

Test: yeast display, Sf9 membrane polyspecificity reagent, FACS + sequencing; frameworks hold sequencing errors
Procedure, shortened: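 Nanobodies came from a synthetic yeast display library in Saccharomyces cerevisiae BJ5465, induced with galactose for 36–48 hours and stained for 1 hour at 4 °C with 10% biotinylated, detergent-solubilized Sf9 membrane reagent. Cells were enriched on streptavidin microbeads and then FACS-sorted, with low and high (top ~1%) gates set on anti-HA fluorescence for expression and streptavidin fluorescence for reagent binding. Each polyreactivity label reflects the gate a clone came from. Genes were amplified by colony PCR, sequenced by MiSeq 2 × 250 and filtered by CDR length.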

Sequence	polyreactivity (PSR sort gate)
QVQLVESGGGLVQAGGSLRLRCAASGFTFDLYAMGWYRQAPGKERELVAAISWSGGSTRYADSVKGRFTISRDNAKNTVYLQMNSLKPEDTAVYYCAKPVLVGLGSRYDYWGQGTQVTVSS	high polyreactivity
QVQLVESGGGLVQAGGSLRLSCAASGITFVYYAMGWYRQAPGKERELVAAITSDGGSTYYADSVKGRFTISRDNAKNTVYLQMNSLKPEDTAVYYCAAEWTSWSWWYGWYEFDYWGQGTQVTVSS	high polyreactivity
QVQLVESGGGLVQAGGSLRLSCAASGIIFIYYVMGWYRQAPGKERELVAAISRSGGSTYYADSVKGRFTISRDNAKNTVNLQMNSLKPEDTAVYYCAARRITSTDEYYWGQGTQVTVSS	high polyreactivity
QVQLVESGGGLVQAGGSLRLSCAASGSTVYHNAMGRYRQAPGKERELVAAITWSGSRTYYADSVKGRFTISRDNAKNTVYLQMNSLKPEDTAVYYCAARDYWGQGTQVTVSS	high polyreactivity
QVQLVESGGGLVQAGGRLRLSCAASGRIFNIYAMGWYRQAPGKERELVAAISGSGGRTSYADSVKGRFTISRDNAKNTVYLQMNSLKPEDTAVYYCAADYSYYTSFRYDYWGQGTQVTVSS	low polyreactivity
QVQIVESGGGLVQAGGSLRLSCAASGRTFWSYAMVWYRPAPGKEWELVATIKDSDGSTYADSVKGRFKISRDNAKNTVYLQMNSLKPEDTAVYYWIAKTRAGYYFGYGYWGQVTQVTVSS	low polyreactivity
QVQLVESGGGLVQAGGSLRLSCAASGRTFYYYAMGWYRQAPGKERELVARIRSTGRTSYADSVKGRFTISRDNAKNTVYLQMNRLKPEDTAVYYCAAKYSSTAWSRRKFDYWGQGTQVTVSS	high polyreactivity
QVQLVESGGGLVQAGGSLRLSCAASGSTFTPNAMVWYRQAPGKERELVAAINWSDSSTYYADSVKGRFTISRDNAKNTVYLQMNSLKPEDTAVYYCAAAAQYGQLQVPVYYWGQGTQVTVSS	low polyreactivity
QVQLVESGGGLVQAGGSLRLSCAASGSTFGKNAMGWSRQAPGNERELVAGITSGGSTYYADSVKGRFTISRDNAKNTVYLQMNSLKPEDTAVYYCAAVRRWKYDWGQGTQVTVSS	high polyreactivity
QVQLVESGGGLVQAGGSLRLSCAASGFTFPGNAMGWYRQAPGKEREFVAAITRSSGSTSYADSVKGRFTISRDNAKNTVYLQMNSLKPEDTAVYRDYWGQGTQVTVSS	low polyreactivity
QVQLVESGGGLVQAGGSLRLSCADSGRTFTNNAMGWYIQAPGKERELVAAITSGGRTNYADSVKGRFTISRDNAKNTVYLQMNSLKPEDTAVYYCAARIPSDGYYYWGQGTQVTVSS	high polyreactivity
QVQLVESGGGLVQAGGSLRLSCAASGFTLSYYAMGWYRQAPGKERELVASISAIGGITYYADSVKGRFTISRDNAKNTVYLQMNSLKPEDTAVYYCARQGRRYRRFDSWGQGTKVTVSS	high polyreactivity
QVQHVESGGGLVQAGGSLRLRCAASGTTFSSNAMGWSRHAPGKERELVASITRGGSTSADSVKGRFTISRDNAKNTVYLQMNSLKPEDTAVYYCAKSVTGWRGLWYTPRNYYWGQGTQVTVSS	high polyreactivity
QVQLVESGGGLVQAGGSLRLSCAAYGRTLRYYAMGWYRQAPGKERELVAAISSGGTTNYADSVKGRFTISRDNAKNTVYLQMNSLKPEDTAVYYCAARYRRFRFTQYDYWGQGTQVTVSS	high polyreactivity
QVQLVESGGGLVQAGGSLRLCCAAAGSTFVYYAMGSYRAAPGNERELVAAIRNGDGTNYADSVKGRFTISRDNAKNTVYLQMNSLKPEDTAVYYCAAPQGEYFYVYEFDYWGQGTQVTVSS	low polyreactivity
QLQLVESGGGLVQAGGSLRLSCAASGSTYATYTMGWYRQAPGKERELVAAISVSGSRTYYADSVKGRFTISRDNAKNTVYLQMNSLKPEDTAVYYCNADPPVKLYLYDYWGQGTQVTVSS	high polyreactivity
QVQHVESGGGLVQAGGSLRLSCAASGRTFRWYAMGWYRHAPGKERELVAGISRGGGSTTYADSVKGRFTISRDYAKNTVYLQMNSLKPEDTAVYYCAAYWGRTRYYGYDYYYWGQGTQLTVSS	high polyreactivity
QVQLVESGGGLVQAGGSLRLSCAASGRTFVVNAMGWYRQAPGKERELVAAIYADSVKGRFTISRDNAKNTVYLQMNSLKPEDTAVYYCAASGGTWVYYRPEYDYWGQGTQVTVSS	low polyreactivity
QVQLVESGGGLVQAGGSLRLSCAASGSIINIYAMGWYRQAPGKERELVATITGIADSTYYADSVKGRFTISRDNAQNSVYLQMNSLKPEETAVYFCAADKYVAEYDYWGQGSQVTVSS	low polyreactivity
QVQLVESGGGLVQAGGSLRLSCAASGSILGRNAMGWYRQAPGKERELVAGITWSTVSTYYADSVKGRFTISRDNAKNTVYLQMNSLKPEDTAVYYCAAAPNLWAYRRWYYTYYYWGQGTQVTVSS	high polyreactivity
QVQLVESGGGLVQAGGTLRLSCAASGSTFVDYAMGWYRQAPGKERELVAGINGSGGSTYYADSVKGRFTISRDNAKNTVYLQMNSLKPEDTAVYYCAKDGSNRLALPAWDYNYWGQGTQVTVSS	low polyreactivity
QVQLVESGGGLVQAGGSLRLSCAASGNILIGNVMGWYRQAPGKERELVAAITSGGDTYYADSVKGRFTISRDNAKNTVYLQMNSLKPEDTAVYYCNAYYYFWGQGTQVTVSS	low polyreactivity

Sequence	polyreactivity (PSR sort gate)
QVQLVESGGGLVQAGGSLRLSCAASGITFVDYVMGWYRQAPGKERELVAAISRGGSRTKYADSVKGRFTISRDNAKNTVYLQMNSLKPEDTAVYYCAAPWLVNHYYPSQEYDYWGQGTQVTVSS	high polyreactivity
QVQLVESGVGLVQAGGSLRLSCAASGISFLVYAMGWYRQAPGKERELVAAISADAGGTYYADSVKGRFTISRDNAKNNVYFQMNSLKPEDTAVYYCNVDGRSDGDDYWGQGTQVTVSS	low polyreactivity
QVQLVESGGGLVQAGGSLRLSCAASGSILNNYAMGWYRQAPGKERELVAAISSSGGTNYADSVKGRFTISRDNAKNTVYLQMYSLKPEDTAVYYCNADVLDGGYDYWGQGTQVTVSS	low polyreactivity
QVQLVESGGCIVQAGGSLRFSCAASGFTFNRYAMGWYRQAPGKERELVAAITRRGGSTYYADSVKGRFTISRDNAKNTVYFQMNSLKPEDTAVYYCNVDFQAYGIPMDYWGQGTQVNVSS	high polyreactivity
QVQLVESGGGLVQAGGSLRLSCAASGRIFTNNAMGWYRQAPGKERELVAAITRGGTTNYADSVKGRFTISRDNAKNTVYLHMNSLKPEDTAVYFCARAGAHPWWSRSTMYYWGQGTQVTVSS	low polyreactivity
QVQLVESGGGLVQAGGSLRLTCAASGSIFPYYAMGWYRQAPGKEREFVAVISRRGGSTYYADSVKGRFTISRDNAKNTVYLQMNSLKPEDTAVYYCNARGYNLLDDWGQGTQVTVSS	high polyreactivity
KVQLVESAVGLVQAGGSLRLSCAASGPTFWRNAMGWYRQAPGKERELVAAISRGGSTNYADSVKGRFTISRDNAKNTVYLLMNSLKPEDTAVYYCAARYYYRYNYWGQGTQVTVSS	high polyreactivity
QVQLVESGGGLVQAGGSLRLSCAASGRTFQYYAMGWYRQAPGKERELVATISYSGGSTSYADSVKGRFTISRDNAKNTVYLQMNSLKPEDTAVYYCAADYYYGDALSPSYPHWDFYYWGQGTQVTVSS	low polyreactivity
QVQLVESGGGLVQAGGSLRLSCAASGSTLGHNAMGWYRQAPGKERELVAGISWRGGSTYYADSVKGRFTISRDNAKNTVYLQMNSLKPEDTAVYYCAAVSYPAVYGFDYWGPGTQVTVSS	high polyreactivity
QVQLVESGGGLVQAGGSLRLSCAASGFIFYYYAMGWYRQAPGKERELVAAISSGDDTTYADSVKGRFTISRDNAKNTVYLKMNSLKPEDTAVYYCNSERSVKQQGPYGYWGQGTQVTVSS	low polyreactivity
QVQLVESGGGLDQAGGSLRLSCAASGSTFESNAMGWYRQAPGKERELVAAISWRVGSTYYADSVKGRFTISRDNAKNTDYLQMHSLKPEDTAVYYCASKGWYSHYGGYDYWGQGTQVTVSS	low polyreactivity
QVQLVESGGGLVQAGGSLRLSCADSGNTFPSYVMGWYRQAPGKERELVAAINRGGGTYYADSVKGRFTISRDNAKNTVYLQMNSLKPEDTAVYYCAVRYQRHPNMDYWGQGTQVTVSS	low polyreactivity
QVQLVESGGGLVQAGGSLRLSCAASGLTFRYYAMGWYRQAPGKERELVAAITRRGSTYYADSVQGRFTISRDNAKNTVYLQMNSLKPEDTAVYYCAADDPYTPQYPDVTYDYWGQGTQVTVSS	high polyreactivity
QVQLVESGGGLVQAGGSLRLSCAASGRTFYRNAMGWYRQAPGKERELVAAITWSGVSTYYADSVKGRFTISRDNAKNTVYLQMNSLKPEDTAVYYCARGRVLRNGHYFQLRNYDYWGQGTQVTVSS	high polyreactivity
QVQLVESGGGLVQAGGSLRLSCAASGSIFRKNAMGWYRQAPGKERELVAAITGTGRTTYADSEKGRFTISRDNAKNTVYLQMNSLKPEDTAVYYCAADVNYYQHRLYYWGQGTQVSVSS	low polyreactivity
QVQLVESGGGLVQAGGSLRLSCAASRSTFPKYAMGWNRKAPGKERELVASISVTTGSPYYADSVKGRFTISLDNAKNTVYLQKNSLKPEDTAVYYCAKRTYSRKFRGAYNYWGQGTQVSVSS	high polyreactivity
QVQLVESGGGLVQAGGILRLSCAASGSIFYHYAMGWYRQAPGKDREFVAAITRRGTSTYYADSVKGRFTISRDIAKKTVYLQMNSLKPEDTAVYYWAARYGPNMDYWGQGTQVTVSS	high polyreactivity
QVQLVESGGGLVQAGGSLRLSCAASGRIFSYYAMGWYRQAPGKERELVAAINSDGSTDYADSVKGRFTISRDNAKNTVYLQMNSLKPEDTAVYYCAKVWSLGPTGFRAYVRVWYYYWGVGTQVTVSS	low polyreactivity
QVQLVESGGGLVQAVGSLRLSCAASGFTFTNYAMGWSRQAPVKEREFVAAISGTGGSTYYADSVKGRFTISRDNAYNTEYLQMNSLKPEDTAVYYCARRRTYPPGRYYYLGQGTQVTVSS	high polyreactivity
QFQLVESGGGLVQAGGSLRLSCAASGRIFFIYAMGWYRQAPGKERELVAGINRTGGSTNYADSVKGRFTISRDNAKNTVYLQMNSLKPEDTAVYYCAADIYDGGFDYWGQGTQVTVSS	low polyreactivity
QVQLVESGGGLVQAGGSLRLSCAASGYTFVWYAMGWYRQAPGKERELVAAISASGGSTYYADSVKGRFTISRDNAKNTVYLQMNSLKPEDTAVYYCNAVGALSVYGGNGYWGQGTQVTVSS	high polyreactivity
